Experimental data from article PMC9405973, “Altered Conformational Landscape upon Sensing Guanine Nucleotides in a Disease Mutant of Elongation Factor-like 1 (EFL1) GTPase” (Biomolecules, 2022).
Several values for one entry are separate records, joined by “and”; a condition that tells them apart may be missing. Equal entries are not always repeated.

Columns and labels:
[1] = target: T1, S. cerevisiae Efl1 R1086Q (S. cerevisiae, UniProt P53893 1-1110, R1086Q); assay: ITC; 30 °C; GTPase in the cell (30-50 µM), Sdo1 as ligand; 50 mM Tris-HCl pH 8.0, 150 mM NaCl, 100 µM DTT, 5% glycerol; one-binding-site model; conditions: both partners purified
T1 construct: Elongation Factor-like 1 (Efl1) GTPase of S. cerevisiae with the mutation R1086Q, equivalent to human EFL1 R1095Q; also called mutant Efl1; mutant R1086Q; source: recombinantly expressed in S. cerevisiae, purified
T1 sequence (looked up): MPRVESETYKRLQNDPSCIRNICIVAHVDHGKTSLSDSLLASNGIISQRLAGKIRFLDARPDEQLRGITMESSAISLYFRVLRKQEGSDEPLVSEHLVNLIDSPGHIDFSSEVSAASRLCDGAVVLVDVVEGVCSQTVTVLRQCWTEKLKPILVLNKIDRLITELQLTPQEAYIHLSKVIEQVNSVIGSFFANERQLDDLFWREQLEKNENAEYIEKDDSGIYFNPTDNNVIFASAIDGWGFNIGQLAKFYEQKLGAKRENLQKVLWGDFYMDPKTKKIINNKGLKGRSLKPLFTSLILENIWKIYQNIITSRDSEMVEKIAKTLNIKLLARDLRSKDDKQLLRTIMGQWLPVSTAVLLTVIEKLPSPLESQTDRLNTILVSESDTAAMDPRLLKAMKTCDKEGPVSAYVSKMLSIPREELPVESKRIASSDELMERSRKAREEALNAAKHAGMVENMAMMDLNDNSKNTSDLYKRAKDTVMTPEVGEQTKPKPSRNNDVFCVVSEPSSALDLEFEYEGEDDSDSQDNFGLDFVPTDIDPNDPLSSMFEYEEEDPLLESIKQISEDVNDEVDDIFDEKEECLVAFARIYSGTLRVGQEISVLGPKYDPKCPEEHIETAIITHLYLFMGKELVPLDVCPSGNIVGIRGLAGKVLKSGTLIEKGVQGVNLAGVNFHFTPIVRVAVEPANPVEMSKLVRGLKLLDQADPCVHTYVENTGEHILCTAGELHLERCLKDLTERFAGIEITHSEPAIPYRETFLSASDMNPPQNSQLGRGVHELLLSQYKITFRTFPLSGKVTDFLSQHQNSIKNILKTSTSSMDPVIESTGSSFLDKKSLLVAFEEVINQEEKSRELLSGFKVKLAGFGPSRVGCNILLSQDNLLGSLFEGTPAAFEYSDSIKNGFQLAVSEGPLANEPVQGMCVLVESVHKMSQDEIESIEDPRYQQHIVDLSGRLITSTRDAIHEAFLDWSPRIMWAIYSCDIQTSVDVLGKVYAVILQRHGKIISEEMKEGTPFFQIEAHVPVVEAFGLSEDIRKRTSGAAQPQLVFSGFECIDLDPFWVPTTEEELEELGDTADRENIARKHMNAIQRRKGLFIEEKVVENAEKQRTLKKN

[2] = tested on: wild-type Efl1; conditions: cited from earlier work
[3] = target: T1, S. cerevisiae Efl1 R1086Q; assay: ITC; coupled equilibria at 30 °C with MgGDP (5 mM MgCl2); heterotropic cooperativity calculated from the titrations of Efl1 R1086Q and of Efl1 R1086Q•Sdo1; conditions: both partners purified
[4] = target: T1, S. cerevisiae Efl1 R1086Q; assay: ITC; 35 °C; GTPase in the cell (30-50 µM), Sdo1 as ligand; 50 mM Tris-HCl pH 8.0, 150 mM NaCl, 100 µM DTT, 5% glycerol; one-binding-site model; conditions: both partners purified
[5] = target: T2, Efl1 R1086Q (Saccharomyces cerevisiae, UniProt P53893, R1086Q); assay: Isothermal titration calorimetry (ITC): binding of guanine nucleotides or Sdo1 to Efl1 R1086Q
T2 construct: made in house; host or cells: Saccharomyces cerevisiae
Protocol: All calorimetric measurements were carried out using MicroCal^TM iTC200 System (GE Healthcare, Northampton, MA, USA) in a temperature range of 25–35 °C. Experiments were performed in a buffer consisting of 50 mM Tris-HCl (pH 8.0), 150 mM NaCl, 100 µM DTT, and 5% glycerol. In the titrations with Mg^2+-bound nucleotides, both the ligand and protein solutions contained 5 mM MgCl2. In the case of titrations with Mg^2+-free nucleotide, both the ligand and protein solutions were supplemented with 2 mM EDTA to sequester any residual trace of metal ions in solution. Protein samples and ligands were prepared in the exact same buffer prior to each titration. Protein concentration in the cell comprised 30–50 µM GTPase, while the ligand concentration in the syringe was 2–3 mM for GTP, MgGTP, GDP, and MgGDP. To ensure measuring the interaction of the complex Efl1 R1086Q•Sdo1 with the nucleotide, an eight-fold concentration excess of Sdo1 was used compared with that of the enzyme. […] The titration schedule consisted of 15–20 consecutive injections of the ligand with 5 min intervals between injections and a stirring rate of 700 rpm. The dilution heat of the ligand was obtained by adding the ligand to a buffer solution under identical conditions and with the same injection schedule used for the protein sample. All samples were degassed for 10 min prior to the experiment.
The binding isotherms obtained for the isolated GTPase in the presence of Mg(II) were analysed using a ternary model in which the protein can bind to the free nucleotide (G(D)TP) or that bound to one magnesium ion (MgG(D)TP); additionally, GTP may also exist in the form of Mg2GTP, which is not recognised by the protein. The derivation of this coupled-equilibria model can be reviewed in [6, 31]. The binding constant (Kb), the enthalpy change (∆Hb), and the stoichiometry (n) were obtained with the non-linear routines implemented in Origin 5.0 (OriginLab, Co., Northampton, MA, USA) using a one-binding-site model as described in [32, 33]. The heterotropic cooperativity for the binding of guanine nucleotides and Sdo1 to Efl1 R1086Q were calculated as previously described in [6, 32]. The cooperative effects of Mg(II) on the binding of guanine nucleotides to Efl1 R1086Q alone and bound to Sdo1 were calculated as follows:κ = KE-MG/KE-G κ = KES-MG/KES-G Δh = ΔHE-MG − ΔHE-G Δh = ΔHES-MG − ΔHES-G where subscripts E-MG and E-G stand for the association of the metal-bound and metal-free guanine nucleotide with mutant Efl1, respectively. Corresponding expressions applied to the heterotropic cooperativity of the binding of nucleotides to the preformed complex, Efl1•Sdo1 (ES).
The impact of Sdo1 on the binding of Efl1 R1086Q to guanine nucleotides in the presence of magnesium ions is contained in KES-MG and ΔHES-MG relative to the KE-S and ΔHE-S values; analogous ratios report the effects in the absence of Mg(II):κ = KES-MG/KE-S κ = KES-G/KE-G Δh = ΔHES-MG − ΔHE-S Δh = ΔHES-G − ΔHE-G
The corresponding cooperative entropy change was calculated as:TΔs = Δh − Δg = Δh + RTlnκ
The detailed methodology and equations to compute the changes in the accessible surface area (∆ASA) of the GTPase upon binding to nucleotides and the ∆S energetic-based parameters are reported in [6]. Briefly, the water-accessible areas (ASAs) were computed using programme NACCESS, while the changes in accessible surface area (ΔASA) upon the formation of each GTPase–nucleotide complex were estimated considering the difference between the complex and the sum of the free interacting partners. The calculated polar (ΔASAp) and apolar (ΔASAap) area changes were subsequently used to estimate the free molecular partners. […]

[6] = target: T1, S. cerevisiae Efl1 R1086Q; assay: ITC; 25 °C; GTPase in the cell (30-50 µM), Sdo1 as ligand; 50 mM Tris-HCl pH 8.0, 150 mM NaCl, 100 µM DTT, 5% glycerol; one-binding-site model; conditions: both partners purified

B1: Yeast SBDS (Sdo1) (natural protein, S. cerevisiae, UniProt Q07953 1-250, looked up)
chain: MPINQPSGQIKLTNVSLVRLKKARKRFEVACYQNKVQDYRKGIEKDLDEVLQIHQVFMNVSKGLVANKEDLQKCFGTTNVDDVIEEIMHKGEIQLSEKERQLMLNKVNNEMLTIVSAKCINPVSKKRYPPTMIHKALQELKFSPVINKPAKLQALEAIKLLVSKQIIPIVRAKMKVKVAISEPSRQPELIEKISKLIASSPGESTKPELDPWTCTGLIDPVNYRDLMTLCDKKGTVQVLDMAVIDNTTHN
notes: Sdo1, the yeast orthologue of SBDS; also called yeast Shwachman-Bodian-Diamond syndrome protein; source: E. coli C41, purified
- Ka [1]: 288000 ± 56000 M⁻¹
- Kd [1]: 3.4 ± 0.6 µM
- dH [1]: -6.3 ± 0.2 kcal/mol
- -TΔSb ([2]; ligand Sdo1, 30 °C): 4.4 kcal/mol
- Kd ([2]; ligand Sdo1, 30 °C): 0.3 µM
- ΔGb ([2]; ligand Sdo1, 30 °C): -9.0 kcal/mol
- ΔHb ([2]; ligand Sdo1, 30 °C): -13.4 ± 0.4 kcal/mol
- ΔCpb ([2]; ligand Sdo1): −860 cal mol^−1 K^−1 and −860 ± 31 cal mol^−1 K^−1
- fold decrease of the interaction with MgGDP against no nucleotide [3]: 3 fold
- Ka [4]: 543000 ± 76000 M⁻¹
- Kd [4]: 1.8 ± 0.2 µM
- dH [4]: -8.7 ± 0.1 kcal/mol
- -TΔSb ([5]; ligand Sdo1, 25 °C): -3.1 kcal/mol
- ΔGb ([5]; ligand Sdo1, 25 °C): -7.4 kcal/mol
- -TΔSb ([5]; ligand Sdo1, 30 °C): -1.3 kcal/mol
- ΔGb ([5]; ligand Sdo1, 30 °C): -7.6 kcal/mol
- Kd ([5]; ligand Sdo1, 30 °C, read-out: Kd): 3 µM
- -TΔSb ([5]; ligand Sdo1, 35 °C): 0.6 kcal/mol
- ΔGb ([5]; ligand Sdo1, 35 °C): -8.1 kcal/mol
- ΔCpb ([5]; ligand Sdo1, from ΔHb at 25–35 °C): −440 cal mol^−1 K^−1 and −440 ± 23 cal mol^−1 K^−1
- Ka [6]: 256000 ± 47000 M⁻¹
- Kd [6]: 3.9 ± 0.7 µM
- dH [6]: -4.3 ± 0.1 kcal/mol
